# Reference: paper doi:10.1101/2022.11.10.515920
# Legend:
# [1] = biological target: adalimumab produced in BY-2 lysate; test: SPR
# [2] = biological target: commercial adalimumab reference product from CHO cells (Humira); test: SPR
# Chain of human FcR I (CD64) (P12314 16-292): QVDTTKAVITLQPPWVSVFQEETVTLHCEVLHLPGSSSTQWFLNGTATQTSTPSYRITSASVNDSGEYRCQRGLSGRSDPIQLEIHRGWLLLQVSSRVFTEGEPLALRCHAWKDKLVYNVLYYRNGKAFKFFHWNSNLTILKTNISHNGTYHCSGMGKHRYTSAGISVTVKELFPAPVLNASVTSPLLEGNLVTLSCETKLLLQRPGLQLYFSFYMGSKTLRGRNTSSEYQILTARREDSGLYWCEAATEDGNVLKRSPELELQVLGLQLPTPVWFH
substance,measurement,setting,value
human FcR I (CD64) (from UniProt P12314) (receptor),Kd,[1],0.353 nM
same,Kd,[2],0.158 nM
